This assay has as its target T1, Axl-Fc (R&D Systems) (UniProt P30530-2 26-440, limits assumed).
T1 construct: Bought reagent (R&D Systems, Minneapolis); also called Axl-Fc receptor; not shown: Fc part of the bought fusion
T1 sequence (looked up): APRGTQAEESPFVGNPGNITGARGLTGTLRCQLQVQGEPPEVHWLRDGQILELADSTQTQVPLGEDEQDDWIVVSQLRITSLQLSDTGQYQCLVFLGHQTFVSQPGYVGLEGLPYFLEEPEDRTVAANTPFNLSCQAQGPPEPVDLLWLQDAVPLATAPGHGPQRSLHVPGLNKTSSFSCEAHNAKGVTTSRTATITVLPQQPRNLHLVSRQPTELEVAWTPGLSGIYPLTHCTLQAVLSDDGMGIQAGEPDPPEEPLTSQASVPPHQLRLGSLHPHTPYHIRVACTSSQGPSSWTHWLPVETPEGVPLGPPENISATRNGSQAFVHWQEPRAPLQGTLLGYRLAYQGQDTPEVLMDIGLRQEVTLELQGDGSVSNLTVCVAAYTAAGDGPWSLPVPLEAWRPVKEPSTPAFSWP
Put plainly: EIA: plate coated with Axl-Fc, Gas6_Flag detected with HRP anti-Flag M2 antibody, OD490.

B1: human Gas6_Flag (human Growth Arrest Specific Gene 6 protein with a Flag epitope tag at the C-terminus) (ligand)
chain: ALLPAREATQFLRPRQRRAFQVFEEAKQGHLERECVEELCSREEAREVFENDPETDYFYPRYLDCINKYGSPYTKNSGFATCVQNLPDQCTPNPCDRKGTQACQDLMGNFFCLCKAGWGGRLCDKDVNECSQENGGCLQICHNKPGSFHCSCHSGFELSSDGRTCQDIDECADSEACGEARCKNLPGSYSCLCDEGFAYSSQEKACRDVDECLQGRCEQVCVNSPGSYTCHCDGRGGLKLSQDMDTCEDILPCVPFSVAKSVKSLYLGRMFSGTPVIRLRFKRLQPTRLVAEFDFRTFDPEGILLFAGGHQDSTWIVLALRAGRLELQLRYNGVGRVTSSGPVINHGMWQTISVEELARNLVIKVNRDAVMKIAVAGDLFQPERGLYHLNLTVGGIPFHEKDLVQPINPRLDGCMRSWNWLNGEDTTIQETVKVNTRMQCFSVTERGSFYPGSGFAFYSLDYMRTPLDVGTESTWEVEVVAHIRPAADTGVLFALWAPDLRAVPLSVALVDYHSTKKLKKQLVVLAVEHTALALMEIKVCDGQEHVVTVSLRDGEATLEVDGTRGQSEVSAAQLQERLAVLERHLRSPVLTFAGGLPDVPVTSAPVTAFYRGCMTLEVNRRLLDLDEAAYKHSDITAHSCPPVEPAAADYKDDDDK
notes: Expressed from full-length cDNA in HEK293 cells grown with vitamin K1 and purified on anti-Flag M2 resin; 2'; also called Gas6_tag
Turning to B1, the EC50 is approximately 0.02 µg/mL.
